From the supplement of paper PMC9732359
± gives the uncertainty stated by the source.

Experiment: protein stability index of a GFP-peptide fusion (yeast GPS) (PSI 1-4); higher = more stable; sorted into four equal gates, so the index is relative within each strain
Outline: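 Tiled yeast protein peptides of 17 residues were each joined downstream of GFP, on plasmids that also express Cherry. The pooled library was maintained in yeast, and mid-log cultures in leucine-free medium were sorted into four equal gates on the GFP/Cherry ratio. Plasmids from every gate were amplified by PCR and sequenced on Illumina, with barcodes linking reads to strains. The protein stability index of a peptide is its gate-number-weighted read frequency summed over the gates.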

Row | Sequence | protein stability index (doa10∆) | protein stability index (pdr5∆) | protein stability index (san1∆) | protein stability index (ubr1∆)
1 | IIFEIEKPLVVPVKLEE [RRP6] | 1.88 ± 0.079 | 2.28 ± 0.071 | 2.21 ± 0.12 | 2.14 ± 0.073
2 | NQLEDFILELEHKTPEL [YIL149C/MLP2] | 2.74 ± 0.14 | 3.28 ± 0.16 | 3.07 ± 0.14 | 3.35 ± 0.12
3 | LQDLISVYGLDDISRQV [ROX3] | 2.69 ± 0.077 | 2.88 ± 0.086 | 2.84 ± 0.12 | 3.21 ± 0.051
4 | KAELEKQKSWVPSYIHV [YIL149C/MLP2] | 2.09 ± 0.052 | 2.33 ± 0.041 | 2.15 ± 0.077 | 2.31 ± 0.035
5 | ETRRKTTTVLKRYANHT [RET1] | 2.14 ± 0.083 | 2.98 ± 0.084 | 3.09 ± 0.045 | 2.94 ± 0.05
6 | ECENEIKTKQMSLKKCQ [SMC2] | 2.92 ± 0.25 | 3.28 ± 0.1 | 3.22 ± 0.076 | 3.32 ± 0.058
7 | NEDMVRRANFYKENEAM [SNF12] | 3.33 ± 0.11 | 3.48 ± 0.087 | 3.39 ± 0.057 | 3.48 ± 0.1
8 | EMARTKKACIIFFDEID [RPT1] | 2.14 ± 0.062 | 2.5 ± 0.068 | 2.54 ± 0.083 | 2.56 ± 0.047
9 | KFQLQNQLEDFILELEH [YIL149C/MLP2] | 2.72 ± 0.081 | 1.95 ± 0.099 | 2.11 ± 0.11 | 1.91 ± 0.086
10 | MLLGTDLCSLKPYVDRF [DIS3] | 2.62 ± 0.06 | 2.68 ± 0.066 | 2.66 ± 0.067 | 2.92 ± 0.052
11 | LLQKMLNLLNYQELFIQ [YML103C/NUP188] | 2.4 ± 0.053 | 1.47 ± 0.038 | 1.38 ± 0.07 | 1.52 ± 0.036
12 | LMTHITTDDEEEPIKKL [RET1] | 3.42 ± 0.27 | 3.41 ± 0.28 | – | 3.49 ± 0.17
13 | SLQDSIIKQENFNSVND [SSN2] | 2.4 ± 0.11 | 1.83 ± 0.073 | 2.48 ± 0.078 | 2.73 ± 0.098
14 | QAQQAQQAQARLQQGRR [SNF2] | 3.02 ± 0.08 | 3.11 ± 0.092 | 2.88 ± 0.048 | 3.02 ± 0.061
15 | HLEALQPLFSTVPEYLK [PGD1] | 1.51 ± 0.039 | 1.69 ± 0.045 | 1.66 ± 0.093 | 2.12 ± 0.066
16 | FDDSDITKFALFAESHD [YML103C/NUP188] | 2.71 ± 0.3 | – | 2.92 ± 0.15 | –
17 | HARGGGAISAVAATNTP [SRP54] | 1.69 ± 0.12 | 2.35 ± 0.12 | 3.07 ± 0.12 | 2.3 ± 0.12
18 | ESESERKYDLFQNLELE [SMC2] | 3.37 ± 0.074 | 3.33 ± 0.077 | 3.35 ± 0.068 | 3.3 ± 0.072
19 | SRRLMKSLEDLSCQYDN [RPO31] | 2.04 ± 0.11 | 1.42 ± 0.17 | 1.36 ± 0.2 | 1.27 ± 0.085
20 | QYYLSVLNQQLPIESQF [BRR2] | 2.28 ± 0.059 | 2.66 ± 0.059 | 2.65 ± 0.055 | 2.42 ± 0.039
21 | LWINYIKELLNITKNLK [POP4] | 1.34 ± 0.071 | 1.56 ± 0.062 | 1.62 ± 0.11 | 1.78 ± 0.054
22 | RLELAGQLISLLFEDLF [RET1] | 2.65 ± 0.092 | 2.9 ± 0.12 | 2.67 ± 0.082 | 2.91 ± 0.075
23 | EPLSDTEEPDLAIADVE [DSN1] | 2.96 ± 0.081 | 2.81 ± 0.067 | 3.09 ± 0.043 | 3.24 ± 0.099
24 | INHKINNKITQLIAKNV [SIR3] | 1.58 ± 0.063 | 1.7 ± 0.062 | 2.22 ± 0.077 | 2.16 ± 0.064
25 | YVKDARKDTVSREVLRY [RPC40] | 3.64 ± 0.13 | 3.2 ± 0.14 | 3.33 ± 0.071 | 3.21 ± 0.11
26 | APDGSASISLPNHIPSV [SWP82] | 3.36 ± 0.11 | 2.54 ± 0.068 | 2.77 ± 0.097 | 3.3 ± 0.044
27 | GKNVINRERFISKLFLR [SMD2] | 2.85 ± 0.093 | 1.69 ± 0.067 | 1.73 ± 0.14 | 2.68 ± 0.12
